Measurements from the supplement of paper PMC9170038.

Tested on: MS2 coat protein
Experiment: apparent KD of MS2 coat protein; designed switch direction (-1 OFF switch, 1 ON switch): 1; higher = weaker reporter binding
Summary of the method: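 For each design, the apparent KD is the median over clusters of curves fitted to normalised cluster fluorescence. Clusters held RNA switches with common flanks, transcribed on Illumina chips by stalled E. coli RNA polymerase. These were titrated with SNAP-549-labelled MS2 coat protein, doubling from 0.7 or 1.5 nM to 3 µM, without input, with 200 uM small-molecule ligand, or with an oligonucleotide input.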

[1] = input ligand: microRNA oligo, concentration not stated
[2] = Eterna round: R95, input ligand: FMN 200 uM
[3] = Eterna round: R95, input ligand: microRNA oligo, concentration not stated
[4] = Eterna round: R95, input ligand: none

| Sequence | apparent KD of MS2 coat protein (input ligand: FMN 200 uM) | apparent KD of MS2 coat protein [1] | apparent KD of MS2 coat protein (input ligand: none) | apparent KD of MS2 coat protein [2] | apparent KD of MS2 coat protein [3] | apparent KD of MS2 coat protein [4] |
| --- | --- | --- | --- | --- | --- | --- |
| AUAAGGCAAGCUUUUUUCUCGUAGUGUAAACAUGAGGAUCACCCAUGUGCCCACCCUGGAUCUUUGGAUCGCGGAAC [Raxesori] (Eterna round: R96, puzzle: Sensor for hsa-mir-208a) | 103 nM | 21.8 nM | 90.5 nM |  |  |  |
| AUAAGGCAAGCUUUUUUCUCGUAGUGUAAACAUGAGGAUCACCCAUGUGCCCACCCUGGAUCUUUGGAUCGCGGAAC [Raxesori] (puzzle: Sensor for hsa-mir-208a) |  |  |  | 83.6 nM | 27.1 nM | 104 nM |
| AUAAGUUUGAUGCUCGUCUCUCCGUACAAACAUGAGGAUCACCCAUGUGGUCGGGAAGUAGCCCGGCCGGUAUGGCC [Atusri] (puzzle: Sensor for hsa-mir-208a) |  |  |  | 16.7 nM | 14.1 nM | 15.8 nM |
| AUAGUUAGCGAAGGAUAUGGGAAAGGAAGUGUACCAGAAGGUCGGCUACUGGGCUUACAUGAGGAUCACCCAUGUCCCGGUAGC [PowerStrip SSNG 1.13] (Eterna round: R96, puzzle: Same State NG 1) | 10.1 nM | 9.15 nM | 12.2 nM |  |  |  |
| AUAGUUGCCGAAGGAUAUGAUGAGGAUCACCCAUCAGAAGGUUGGCUAUUGGGUGGACAUGAGGAUCACCCAUGUUCUUUGGUA (Eterna round: R96, puzzle: Same State NG 1) | 64.2 nM | 107 nM | 140 nM |  |  |  |
| AUAGUUGCCGAAGGAUAUGAUGAUGAUCACACAUCAGAAGGUCGGCUAUUGGGUGGACAUGAGGAUCACCCGUGUUCUUUGGUC (Eterna round: R96, puzzle: Same State NG 1) | 96.1 nM | 79.5 nM | 103 nM |  |  |  |
| AUAUAACAUGAGGAUCACCCAUGUCUCUAAAGUCGAGGAUAUGGGCAGGUUAUAUCCGAACCAGAAGGCGAAUUAU [SS1 Teenbexe 5] (puzzle: Same State 1) |  |  |  | 56.3 nM | 239 nM | 322 nM |
| AUCAAAUACCUAGGAUAUAGUACACACAGCGGGCUAGAAGGAGGCGACCACGCUGACAUGAGGAUCACCCAUGUCCAACAGGAU [Eternabot solution 19] (Eterna round: R96, puzzle: Same State NG 1) | 48.9 nM | 37.8 nM | 52.8 nM |  |  |  |
| AUCAAUCUAUCUCAGGAUAUCAUGUCAAAGACAUGAGGAUCACCCAUGUACCAGGAAACUGGUUAUGAGAAGGGAGAUAGAUUGA [Mat - Same State 2 - Mod - D30] (puzzle: Same State 2) |  |  |  | 56.2 nM | 158 nM | 53.2 nM |
| AUCCGGAAGCGAGGAUAUGCAGAGGAUCACCCUGCAGAAGGCGCAAAAGCGAGGAUAUGCAGAGGAUCACCCUGCAGAAGGCGC [pwkr ssNG DX.28] (Eterna round: R96, puzzle: Same State NG 1) | 14 nM | 12.6 nM | 42.1 nM |  |  |  |
| AUGGAGACCGGAGGAUAUGGACCAACAAUCGGUCCAGAAGGCUGCCCAUGGUAUACAUGAGGAUCACCCAUGUGGCCGCGGAGA [Eternabot solution 13] (Eterna round: R96, puzzle: Same State NG 1) | 65.8 nM | 69.2 nM | 102 nM |  |  |  |
| AUUAUACAUGAGGAUCACCCAUGUCAAUGUAGUCGAGGAUAUGGGUUGCUAUGAGGCGUACUAGAAGGCGAGGAGA [Mat - Same State 1 - Mod of JL - D17] (puzzle: Same State 1) |  |  |  | 61.5 nM | 99.9 nM | 82.8 nM |
| AUUAUUUAUGCAGGAUAUGAUUAACAUGAGGAUCACCCAUGUGGUGUUGUGAGUAAGGAGAGUGAUCAGAAGGGCAUUUCUUUU [JMF's solution 49] (Eterna round: R96, puzzle: Same State NG 2) | 596 nM | 315 nM | 492 nM |  |  |  |
| AUUAUUUAUGCAGGAUAUGAUUAACAUGAGGAUCACCCAUGUGGUGUUGUGAGUAAGGAGAGUGAUCAGAAGGGCAUUUUUUCU [JMF's solution 55] (Eterna round: R96, puzzle: Same State NG 2) | 460 nM | 361 nM | 490 nM |  |  |  |
| AUUCGUUUGAUAGGAUAUCGCUAUACAUGAGGAUCACCCAUGUUUACCACGCUGGUUUUUCGUACCGAGAAGGAUUCUGAUGAU [JL JR sub007 mod 3] (Eterna round: R96, puzzle: Same State NG 2) | 35.4 nM | 27.3 nM | 41.4 nM |  |  |  |
| AUUGCUUACGCAGGAUAUGAUGUGGAAACUGCGUCAGAAGGGUGAACAGAAUCGUUGCAAGAAGACAUGAGGAUCACCCAUGUC [SameState NG1 #97] (Eterna round: R96, puzzle: Same State NG 1) | 42 nM | 34.9 nM | 39 nM |  |  |  |
| AUUUAACAAGCUUUUUGCUCGUCUUAUAAACAUGAGGAUCACCCAUGUAAUAGCGUGAGAGUAAUUAUAUUAAUUAU [JMF 101] (puzzle: Sensor for hsa-mir-208a) |  |  |  | 14.7 nM | 36 nM | 14.7 nM |
| AUUUAACAAGCUUUUUGCUCGUCUUAUAAACAUGAGGAUCACCCAUGUAAUAGCGUGAGAGUUAUUAUAUAAAUAAU [JMF 87] (puzzle: Sensor for hsa-mir-208a) |  |  |  | 18 nM | 33.1 nM | 16.7 nM |
| AUUUUUAAUGCAGGAUAUGAUUAACAUGAGGAUCACCCAUGUGGUGUUGUGAGUAAGGAGAGUGAUCAGAAGGGCAUUUUUUUG [JMF's solution 90] (Eterna round: R96, puzzle: Same State NG 2) | 753 nM | 287 nM | 458 nM |  |  |  |
| CAAACCGACACAGGAUAUGGAGCCGACCGGCACAUGAGGAUCACCCAUGUGCUACAGGUAUGUAGCUAGAAGGGUGAAGGUAUC [Eternabot solution 29] (Eterna round: R96, puzzle: Same State NG 2) | 48.5 nM | 56.9 nM | 118 nM |  |  |  |
| CAAACUUAGUAGGGUAGGUACCCAGGAUGACAUGAGGAUCACCCAUGUAAGAGCUUUUUGCUCGUCAUUAACAGUUG [JR_SHM208a_Sub018] (puzzle: Sensor for hsa-mir-208a) |  |  |  | 57.5 nM | 102 nM | 74.5 nM |
| CAAGAAAACGCAGGAUAUACCCGGACAACCCGGGUAGAAGGGUGACACAUGAGGAUCACCCAUGUACAUGGCAAUAACCAUGGA [Sobiais] (Eterna round: R96, puzzle: Same State NG 1) | 15.2 nM | 10.7 nM | 35.4 nM |  |  |  |
| CAAGUACAUGAGGAUCACCCAUGUAGAAGAGAUGCAGGAUAUGUGGGAAAAGGGAGUGUAACAGAAGGGCAAGGAG [JR_SS!_Sub018] (puzzle: Same State 1) |  |  |  | 50 nM | 55.4 nM | 59.9 nM |
